How the values were obtained:
[1] = target: HLA I molecule A*02:01, purified; assay: radioligand binding
[2] = tested on: CD8 T cells of peptide‐expanded PBMCs from A*02:01‐donors; assay: DimerX staining; format: cell-based, human; conditions: Figure 5A; peptide‐stimulated PBMCs from A*02:01‐subject #14; representative experiment

Row | Substance | IC50 [1] | percentage of CD8 T cells recognizing DimerX‐peptides within the total of gated‐CD8 T cells [2]
1 | HRVC_(1791-1806) peptide | 91 nM | 
2 | NTSAGFPYV [HRVC1798‐1806] |  | 1.12%

Reference: publication PMC7753581 (The FASEB Journal, 2020)
